Measured values from patent EP4591887A1, “GPC3 ANTIBODY-DRUG CONJUGATE AND USE THEREOF” (priority 2022, dated 2024).

Key:
human GPC3 (Glypican-3) [1] = target: T1, human GPC3 (Glypican-3) (human, UniProt P51654 25-580); assay: FACS on HepG2 cells
T1 construct: whole, on cells; the cell line is named under assay or readout

human GPC3 (Glypican-3) [2] = target: T1, human GPC3 (Glypican-3); assay: FACS on Huh-7 cells
human GPC3 (Glypican-3) [3] = target: T1, human GPC3 (Glypican-3); assay: cell-based or functional assay
human GPC3 (Glypican-3) [4] = target: T1, human GPC3 (Glypican-3); assay: FACS on CHO-K1 cells overexpressing human GPC3 (GPC3-CHO-K1)
human GPC3 (Glypican-3) [5] = target: T1, human GPC3 (Glypican-3); assay: cell-based or functional assay; remark: listed apart in the source
human GPC3 (Glypican-3) [6] = target: T1, human GPC3 (Glypican-3); assay: cell-based or functional assay; remark: listed apart in the source
human GPC3 (Glypican-3) [7] = target: T1, human GPC3 (Glypican-3); assay: FACS on HepG2 cells; remark: listed apart in the source
human GPC3 (Glypican-3) [8] = target: T1, human GPC3 (Glypican-3); assay: FACS on HepG2 cells, top of the fitted fluorescence curve

Row | Binder | EC50 (human GPC3 (Glypican-3) [1]) [nM] | EC50 (human GPC3 (Glypican-3) [2]) [nM] | internalization on HepG2 cells (pHAb dye-labelled anti-hIgG secondary antibody, 48 h): EC50 (human GPC3 (Glypican-3) [3]) [µg/mL] | internalization on HepG2 cells (pHAb dye-labelled anti-hIgG secondary antibody, 48 h): Top (human GPC3 (Glypican-3) [3]) | EC50 (human GPC3 (Glypican-3) [4]) [nM] | Percentage reduction of GPC3 on cell surface (%), Huh7 cells, 2 h at 37°C against ice, FACS (human GPC3 (Glypican-3) [5]) [%] | EC50 value of cytotoxicity, HepG2 cells (96 h, PrestoBlue) (human GPC3 (Glypican-3) [6]) [µg/mL] | EC50 value of cytotoxicity, Huh7 cells (96 h, PrestoBlue) (human GPC3 (Glypican-3) [6]) [µg/mL] | EC50 (human GPC3 (Glypican-3) [7]) [µg/mL] | Top (human GPC3 (Glypican-3) [8])
1 | Y035 CDRs with Hu 52H5D3B8-7 FRs (antibody, V domains shown, built here from the pieces; detected with anti-human IgG) VH: EVQLVQSGAEVKKPGASVKVSCKASGYTFTDYEMHWVRQAPGQGLEWMGAIHPGSGDTAYNQRFKGRVTMTADKSISTAYMELSRLRSDDTAVYYCTRFYSYAYWGQGTLVTVSS VL: DVVMTQTPLSLSVTPGQPASISCRSSQSLVHSNGNTYLQWYLQKPGQSPQLLIYKVSNRFSGVPDRFSGSGSGTDFTLKISRVEAEDVGVYYCSQSIYVPYTFGGGTKVEIK | 0.611 | 0.667 | 1.11 | 52200 | 0.907 | – | – | – | – | –
2 | Hu 52H5D3B8-8-L1-D1 (antibody, human IgG1, kappa, V domains shown, MC-vc-PAB-MMAE (L1-D1) on cysteine thiols freed by TCEP reduction of disulfide bonds; positions not given) VH: EVQLVQSGAEVKKPGASVKVSCKASGYTFTDYEMHWVRQAPGQGLEWMGAIHPGSGGTAYNQKFKGRVTMTADKSISTAYMELSRLRSDDTAVYYCTRFYSYAYWGQGTLVTVSS VL: DVVMTQTPLSLSVTPGQPASISCRSSQSLVHSNGNTYLQWYLQKPGQSPQLLIYKVSNRFSGVPDRFSGSGSGTDFTLKISRVEAEDVGVYFCSQSIHVPYTFGGGTKVEIKR | – | – | – | – | – | 66.5 | 0.0409 | 0.038 | – | –
3 | Hu 52H5D3B8-8-ZLA (antibody, human IgG1, kappa, V domains shown, ZLA linker-payload on cysteine thiols freed by TCEP reduction of disulfide bonds; positions not given, Constant regions as for Hu 52H5D3B8-8; also called Hu 52H5D3B8-8 ADC; Anti-GPC3-ZLA) VH: EVQLVQSGAEVKKPGASVKVSCKASGYTFTDYEMHWVRQAPGQGLEWMGAIHPGSGGTAYNQKFKGRVTMTADKSISTAYMELSRLRSDDTAVYYCTRFYSYAYWGQGTLVTVSS VL: DVVMTQTPLSLSVTPGQPASISCRSSQSLVHSNGNTYLQWYLQKPGQSPQLLIYKVSNRFSGVPDRFSGSGSGTDFTLKISRVEAEDVGVYFCSQSIHVPYTFGGGTKVEIKR | – | – | – | – | – | 64.3 | 0.0391 | 0.00352 | 0.0569 | 69100
4 | Hu 52H5D3B8-8-L4-D4 (antibody, human IgG1, kappa, V domains shown, MC-MMAF (L4-D4) on cysteine thiols freed by TCEP reduction of disulfide bonds; positions not given, Constant regions as for Hu 52H5D3B8-8; also called Hu 52H5D3B8-8 ADC; Anti-GPC3-L4-D4) VH: EVQLVQSGAEVKKPGASVKVSCKASGYTFTDYEMHWVRQAPGQGLEWMGAIHPGSGGTAYNQKFKGRVTMTADKSISTAYMELSRLRSDDTAVYYCTRFYSYAYWGQGTLVTVSS VL: DVVMTQTPLSLSVTPGQPASISCRSSQSLVHSNGNTYLQWYLQKPGQSPQLLIYKVSNRFSGVPDRFSGSGSGTDFTLKISRVEAEDVGVYFCSQSIHVPYTFGGGTKVEIKR | – | – | – | – | – | 63.4 | – | – | 0.0693 | 72900
5 | Hu 52H5D3B8-7/8 CDRs with Y035 FRs (antibody, V domains shown) VH: EVQLVQSGAEVKKPGASVKVSCKASGYTHSDYEMHWVRQAPGQGLEWMGAIHPGSGGTAYNQKFKGRVTITADKSTSTAYMELSSLRSEDTAVYYCARFYSYAYWGQGTLVTVSA VL: DIVMTQTPLSLPVTPGEPASISCRSSQSLVHSNGNTYLQWYLQKPGQSPQLLIYKVSNRFSGVPDRFSGSGSGTDFTLKISRVEAEDVGVYYCSQSIHVPYTFGQGTKLEIKR | 0.769 | 0.782 | 1.14 | 59200 | 0.763 | – | – | – | – | –
6 | Hu 52H5D3B8-7-L4-D4 (antibody, human IgG1, kappa, V domains shown, MC-MMAF (L4-D4) on cysteine thiols freed by TCEP reduction of disulfide bonds; positions not given) VH: EVQLVQSGAEVKKPGASVKVSCKASGYTFTDYEMHWVRQAPGQGLEWMGAIHPGSGGTAYNQKFKGRVTMTADKSISTAYMELSRLRSDDTAVYYCTRFYSYAYWGQGTLVTVSS VL: DVVMTQTPLSLSVTPGQPASISCRSSQSLVHSNGNTYLQWYLQKPGQSPQLLIYKVSNRFSGVPDRFSGSGSGTDFTLKISRVEAEDVGVYYCSQSIHVPYTFGGGTKVEIKR | – | – | – | – | – | – | – | 0.00455 | – | –
7 | Hu 52H5D3B8-8-L3-D3 (antibody, human IgG1, kappa, V domains shown, MA-PEG4-VC-PAB-DMEA-Duocarmycin SA (L3-D3) on cysteine thiols freed by TCEP reduction of disulfide bonds; positions not given) VH: EVQLVQSGAEVKKPGASVKVSCKASGYTFTDYEMHWVRQAPGQGLEWMGAIHPGSGGTAYNQKFKGRVTMTADKSISTAYMELSRLRSDDTAVYYCTRFYSYAYWGQGTLVTVSS VL: DVVMTQTPLSLSVTPGQPASISCRSSQSLVHSNGNTYLQWYLQKPGQSPQLLIYKVSNRFSGVPDRFSGSGSGTDFTLKISRVEAEDVGVYFCSQSIHVPYTFGGGTKVEIKR | – | – | – | – | – | 65 | – | 0.0274 | – | –
8 | Hu 52H5D3B8-7 (antibody, human IgG1, kappa, V domains shown, also called humanized GPC3 antibody Hu 52H5D3B8-7) VH: EVQLVQSGAEVKKPGASVKVSCKASGYTFTDYEMHWVRQAPGQGLEWMGAIHPGSGGTAYNQKFKGRVTMTADKSISTAYMELSRLRSDDTAVYYCTRFYSYAYWGQGTLVTVSS VL: DVVMTQTPLSLSVTPGQPASISCRSSQSLVHSNGNTYLQWYLQKPGQSPQLLIYKVSNRFSGVPDRFSGSGSGTDFTLKISRVEAEDVGVYYCSQSIHVPYTFGGGTKVEIKR | 0.405 | 0.464 | 0.72 | 58600 | 0.446 | 64.4 | – | – | – | –
